Results as given in patent publication US20120171210A1, “METHODS AND COMPOSITIONS FOR INHIBITING C-MET DIMERIZATION AND ACTIVATION” (Genentech, Inc., priority 2003, published 2012).

Key:
MAPK [1] = assay: MAPK phosphorylation in A549 cells (immunoblot); format: cell-based, Human
Description: (§1) Cell lines were obtained from American Type Culture Collection (ATCC). 293 cells were maintained in DMEM supplemented with 10% FBS (Sigma), penicillin/streptomycin (GIBCO), and glutamine A549, H441, and MDA-MB-435 cells were maintained in 50:50 DMEM/F12 (Cellgro) supplemented with 10% FBS, penicillin/streptomycin, and glutamine Cells were transfected with 1-12 μg of the indicated constructs using Lipofectamine 2000 (Invitrogen) according to manufacturer's instructions. Twenty-four hrs later cells were harvested with 1% NP40 lysis buffer containing Complete protease inhibitor cocktail tablet and phosphatase inhibitor cocktail 2 (Roche and Sigma, respectively). For Met tyrosine phosphorylation and MAPK phosphorylation studies, cells were serum-starved for 2 hr with 0.5% BSA. Cells treated with 10 μg/ml anti-Met 5D5-Fab or rSema were incubated for an additional 1 hr prior to lysis. Cell debris was centrifuged and the supernatant was precleared with Protein A Sepharose (Sigma) or Protein G-Plus agarose beads (Santa Cruz) for 1 hr. 500 μg of lysates was then immunoprecipitated with 10 μg 5D5 antibody (Genentech) or 35 ul of Met (C-28) agarose conjugate (Santa Cruz) overnight at 4° C. with rotation. For HGF binding studies, 500 μg of lysates were incubated with 5 μg scHGF or HGF followed by immunoprecipitation with 1 μg of V5 antibody. Protein A or G beads were added for an additional 2 hrs before immunoprecipitates were washed 3 times with 1% NP40 lysis buffer. After addition of 2× sample buffer with 10 mM DTT, the samples were run on 4-12% Tris-glycine gels (Invitrogen). […] Proteins were detected by enhanced chemiluminescence (ECL-Plus, Amersham).
(§2) Human tumor cells were treated with increasing concentrations of rSema and analyzed for Met tyrosine phosphorylation and downstream activation of mitogen activated protein kinase (MAPK) upon HGF stimulation. […]

MAPK [2] = assay: MAPK phosphorylation in H441 cells (immunoblot); format: cell-based, Human
Description: as §1, with “hr.” for “hr. 500 μg of lysates was then immunoprecipitated with 10 μg 5D5 antibody (Genentech) or 35 ul of Met (C-28) agarose conjugate (Santa Cruz) overnight at 4° C. with rotation. For HGF binding studies, 500 μg of lysates were incubated with 5 μg scHGF or HGF followed by immunoprecipitation with 1 μg of V5 antibody. Protein A or G beads were added for an additional 2 hrs before immunoprecipitates were washed 3 times with 1% NP40 lysis buffer. After addition of 2× sample buffer with 10 mM DTT, the samples were run on 4-12% Tris-glycine gels (Invitrogen).”
as §2

MAPK [3] = assay: MAPK phosphorylation in MDA-MB-435 cells (immunoblot); format: cell-based, Human
Description: as §1, with “hr.” for “hr. 500 μg of lysates was then immunoprecipitated with 10 μg 5D5 antibody (Genentech) or 35 ul of Met (C-28) agarose conjugate (Santa Cruz) overnight at 4° C. with rotation. For HGF binding studies, 500 μg of lysates were incubated with 5 μg scHGF or HGF followed by immunoprecipitation with 1 μg of V5 antibody. Protein A or G beads were added for an additional 2 hrs before immunoprecipitates were washed 3 times with 1% NP40 lysis buffer. After addition of 2× sample buffer with 10 mM DTT, the samples were run on 4-12% Tris-glycine gels (Invitrogen).”
as §2

H441 cells = assay: Scrape assay (Met mediated cell motility); format: cell-based, Human
Description: H441 cells were seeded at a density of 4.5×10^4 cells/well in a 96-well plate with 10% FBS in 50:50 DMEM/F12. The next day, a single scrape was made in the confluent monolayer in each well as described previously (Lorenzato et al., 2002). The cells were then incubated with media containing 0.5% BSA and treated with mock, 10 μg/ml 5D5, 10 μg/ml Sema, or 100 ng/ml HGF. The scrape was monitored and photographed daily. Representative results are shown for Day 2.
H441 cells were used in a scrape assay as a measure of Met mediated cell motility (Lorenzato et al., 2002). H441 cells grown to high density were scraped in each well on day 0 and maintained in serum-free media containing 0.5% BSA for the duration of the experiment (FIG. 6). Cells were either treated with 10 μg/ml rSema or 5D5 or 100 ng/ml HGF as a positive control or mock treated. […] These observations were consistent in four separate experiments.
To examine the effect of rSema on cell motility in the presence of ligand, cells were treated with 0, 0.1, 0.5, or 5 μg/ml rSema plus 20 ng/ml HGF. Cells treated with HGF alone closed the gap completely by Day 1.

MDA-MB-435 cells = assay: Transwell migration assay; format: cell-based, Human; settings: MDA-MB-435, 10 μg/ml in upper chamber, absence of HGF, vs mock
Description: Transwell migration assays were carried out as previously described with modifications (Coltella et al., 2003). MDA-MB-435 cells were seeded at 1.2×10^5 cells in media containing 0.5% BSA to the upper chamber of each transwell (Costar) that had been previously coated with 10 ug/ml collagen type IV (Sigma). Mock, 10 μg/ml anti-Met 5D5-Fab, or 10 μg/ml Sema was added to the upper chamber. As a positive control, 100 ng/ml HGF was also added to the lower chamber of mock-treated wells. The next day, the cells were fixed with 4% paraformaldehyde and stained with 0.5% crystal violet. Cells that had migrated to the lower chamber were solubilized with 10% acetic acid and the absorbance was measured at 560 nm in a microplate reader.
A transwell assay with MDA-MB-435 cells was used to measure Met driven cell migration (Coltella et al., 2003). […] The data correlated with the scrape assay results in the H441 cell line. Activation of Akt was also examined in H441 and MDA-MB-435 cells used in the cell motility and migration assays. […] The data correlated with observations that rSema can inhibit cell motility in the presence of ligand. […]

Akt [4] = assay: Akt phosphorylation in H441 cells; format: cell-based, Human; settings: H441, increasing concentrations of rSema in the presence of HGF; data not shown
Excerpt: (§3) A transwell assay with MDA-MB-435 cells was used to measure Met driven cell migration (Coltella et al., 2003). […] The data correlated with the scrape assay results in the H441 cell line. Activation of Akt was also examined in H441 and MDA-MB-435 cells used in the cell motility and migration assays. […] The data correlated with observations that rSema can inhibit cell motility in the presence of ligand. Taken together, these observations supports the conclusion that a Sema domain antagonist, such as a recombinant polypeptide comprising a Sema sequence, is capable of not only inhibiting Met activation, but also blocking downstream effects of cell motility and migration in both ligand dependent and independent contexts.

Akt [5] = assay: Akt phosphorylation in MDA-MB-435 cells; format: cell-based, Human; settings: MDA-MB-435, increasing concentrations of rSema in the presence of HGF; data not shown
Excerpt: as §3

Met = Met (Homo sapiens, UniProt P08581); assay: Met tyrosine phosphorylation in A549 cells (immunoprecipitation / phosphotyrosine immunoblot); format: cell-based; design: endogenous in cells; host or cells: A549 (lung carcinoma)
Met, sequence (P08581 308-1390, one chain of several): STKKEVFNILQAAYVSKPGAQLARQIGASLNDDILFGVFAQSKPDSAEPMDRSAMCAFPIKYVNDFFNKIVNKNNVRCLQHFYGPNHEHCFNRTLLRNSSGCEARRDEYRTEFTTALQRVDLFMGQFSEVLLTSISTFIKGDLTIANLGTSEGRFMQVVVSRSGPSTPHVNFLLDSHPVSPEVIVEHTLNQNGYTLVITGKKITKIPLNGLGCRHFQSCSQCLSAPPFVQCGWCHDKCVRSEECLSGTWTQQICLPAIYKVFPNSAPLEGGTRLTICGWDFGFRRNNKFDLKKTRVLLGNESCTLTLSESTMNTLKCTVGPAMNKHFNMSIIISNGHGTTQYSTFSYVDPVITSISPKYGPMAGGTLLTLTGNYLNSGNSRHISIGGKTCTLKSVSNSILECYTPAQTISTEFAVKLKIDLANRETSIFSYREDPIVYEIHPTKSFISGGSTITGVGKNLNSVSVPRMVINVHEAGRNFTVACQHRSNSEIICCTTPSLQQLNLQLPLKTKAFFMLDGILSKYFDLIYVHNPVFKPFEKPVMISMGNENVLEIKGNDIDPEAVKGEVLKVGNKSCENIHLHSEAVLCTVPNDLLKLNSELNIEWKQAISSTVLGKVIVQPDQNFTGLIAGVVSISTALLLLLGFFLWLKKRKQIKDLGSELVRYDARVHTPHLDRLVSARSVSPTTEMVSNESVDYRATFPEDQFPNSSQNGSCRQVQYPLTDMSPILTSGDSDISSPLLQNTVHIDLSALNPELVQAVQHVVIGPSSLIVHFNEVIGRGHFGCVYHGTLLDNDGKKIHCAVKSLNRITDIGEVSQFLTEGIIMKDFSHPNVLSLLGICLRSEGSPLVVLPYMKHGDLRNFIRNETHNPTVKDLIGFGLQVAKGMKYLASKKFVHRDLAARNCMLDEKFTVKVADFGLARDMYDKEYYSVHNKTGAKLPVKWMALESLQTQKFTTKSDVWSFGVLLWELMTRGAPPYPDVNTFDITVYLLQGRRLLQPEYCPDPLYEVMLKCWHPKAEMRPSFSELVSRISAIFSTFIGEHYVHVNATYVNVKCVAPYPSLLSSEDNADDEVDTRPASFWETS
Description: as §1, §2

[6] = A549, serum-free, 10 μg/ml, absence of HGF, vs mock

Met phosphorylation (Met; A549, serum starved, 0-100 μg/ml rSema with 10 ng/ml HGF, 10 min): decrease in Met phosphorylation
ligand independent Met phosphorylation (Met; [6]): inhibition
B1: rSema: recombinant Sema (rSema) protein, which included the Sema and PSI domains of the Met receptor (residues 25-567, 8×His tag) (protein)
chain: ECKEALAKSEMNVNMKYQLPNFTAETPIQNVILHEHHIFLGATNYIYVLNEEDLQKVAEYKTGPVLEHPDCFPCQDCSSKANLSGGVWKDNINMALVVDTYYDDQLISCGSVNRGTCQRHVFPHNHTADIQSEVHCIFSPQIEEPSQCPDCVVSALGAKVLSSVKDRFINFFVGNTINSSYFPDHPLHSISVRRLKETKDGFMFLTDQSYIDVLPEFRDSYPIKYVHAFESNNFIYFLTVQRETLDAQTFHTRIIRFCSINSGLHSYMEMPLECILTEKRKKRSTKKEVFNILQAAYVSKPGAQLARQIGASLNDDILFGVFAQSKPDSAEPMDRSAMCAFPIKYVNDFFNKIVNKNNVRCLQHFYGPNHEHCFNRTLLRNSSGCEARRDEYRTEFTTALQRVDLFMGQFSEVLLTSISTFIKGDLTIANLGTSEGRFMQVVVSRSGPSTPHVNFLLDSHPVSPEVIVEHTLNQNGYTLVITGKKITKIPLNGLGCRHFQSCSQCLSAPPFVQCGWCHDKCVRSEECLSGTWTQQICLPAIYKHHHHHHHH
phosphorylation of MAPK (MAPK [1]; A549, increasing concentrations of rSema in the presence of HGF (10 ng/ml)): phosphorylation of MAPK decreased
phospho-MAPK levels (MAPK [1]; [6]): inhibition
phospho-MAPK (MAPK [2]; H441, 0-100 μg/ml rSema plus 5 ng/ml HGF, 5 min): dose dependent decrease in phospho-MAPK
MAPK phosphorylation (MAPK [2]; H441, 10 μg/ml, absence of HGF): decrease in MAPK phosphorylation
phospho-MAPK (MAPK [3]; MDA-MB-435, 0-100 μg/ml rSema plus 10 ng/ml HGF, 5 min): dose dependent decrease in phospho-MAPK
MAPK phosphorylation (MAPK [3]; MDA-MB-435, 10 μg/ml, absence of HGF): decrease in MAPK phosphorylation
gap closure in scrape assay in the presence of ligand (H441 cells; 0, 0.1, 0.5 or 5 μg/ml rSema plus 20 ng/ml HGF, data not shown): retained the gap in a dose dependent manner
gap closure in scrape assay (H441 cells; H441, 10 μg/ml, serum-free, absence of HGF, Day 2, mock gap closed completely): a gap remained
cell migration (absorbance at 560 nm of migrated cells) (MDA-MB-435 cells): consistently decreased
Akt phosphorylation (Akt [4]): dose dependent decrease in Akt phosphorylation
Akt phosphorylation (Akt [5]): dose dependent decrease in Akt phosphorylation
